Test results as given in patent publication US20090318349.
Where a chain is given by its changes, count along the chain named.

B1: mature mTGase from Streptoverticillium ladakanum (protein)
chain: DSDERVTPPAEPLDRMPDPYRPSYGRAETIVNNYIRKWQQVYSHRDGRKQQMTEEQREWLSYGCVGVTWVNSGQYPTNRLAFAFFDEDKYKNELKNGRPRSGETRAEFEGRVAKDSFDEAKGFQRARDVASVMNKALENAHDEGAYLDNLKKELANGNDALRNEDARSPFYSALRNTPSFKDRNGGNHDPSKMKAVIYSKHFWSGQDRSGSSDKRKYGDPEAFRPDRGTGLVDMSRDRNIPRSPTSPGESFVNFDYGWFGAQTEADADKTVWTHGNHYHAPNGSLGAMHVYESKFRNWSDGYSDFDRGAYVVTFVPKSWNTAPDKVKQGWP
B2: Met-mTGase from S. mobaraensis (protein)
chain: MDSDDRVTPPAEPLDRMPDPYRPSYGRAETVVNNYIRKWQQVYSHRDGRKQQMTEEQREWLSYGCVGVTWVNSGQYPTNRLAFASFDEDRFKNELKNGRPRSGETRAEFEGRVAKESFDEEKGFQRAREVASVMNRALENAHDESAYLDNLKKELANGNDALRNEDARSPFYSALRNTPSFKERNGGNHDPSRMKAVIYSKHFWSGQDRSSSADKRKYGDPDAFRPAPGTGLVDMSRDRNIPRSPTSPGEGFVNFDYGWFGAQTEADADKTVWTHGNHYHAPNGSLGAMHVYESKFRNWSEGYSDFDRGAYVITFIPKSWNTAPDKVKQGWP
B3: mTGase from Streptomyces mobaraensis (protein)
chain: DSDDRVTPPAEPLDRMPDPYRPSYGRAETVVNNYIRKWQQVYSHRDGRKQQMTEEQREWLSYGCVGVTWVNSGQYPTNRLAFASFDEDRFKNELKNGRPRSGETRAEFEGRVAKESFDEEKGFQRAREVASVMNRALENAHDESAYLDNLKKELANGNDALRNEDARSPFYSALRNTPSFKERNGGNHDPSRMKAVIYSKHFWSGQDRSSSADKRKYGDPDAFRPAPGTGLVDMSRDRNIPRSPTSPGEGFVNFDYGWFGAQTEADADKTVWTHGNHYHAPNGSLGAMHVYESKFRNWSEGYSDFDRGAYVITFIPKSWNTAPDKVKQGWP
B4: AlaPro-mTGase from S. ladakanum (protein)
chain: APDSDERVTPPAEPLDRMPDPYRPSYGRAETIVNNYIRKWQQVYSHRDGRKQQMTEEQREWLSYGCVGVTWVNSGQYPTNRLAFAFFDEDKYKNELKNGRPRSGETRAEFEGRVAKDSFDEAKGFQRARDVASVMNKALENAHDEGAYLDNLKKELANGNDALRNEDARSPFYSALRNTPSFKDRNGGNHDPSKMKAVIYSKHFWSGQDRSGSSDKRKYGDPEAFRPDRGTGLVDMSRDRNIPRSPTSPGESFVNFDYGWFGAQTEADADKTVWTHGNHYHAPNGSLGAMHVYESKFRNWSDGYSDFDRGAYVVTFVPKSWNTAPDKVKQGWP
B5: GlyPro-mTGase_Y62H_Y75N from S. ladakanum (protein)
chain: B4 chain with A1G, Y64H, Y77N
B6: GlyPro-mTGase from S. ladakanum (protein)
chain: B4 chain with A1G
B7: GlyPro-mTGase_Y62H_Y75F from S. ladakanum (protein)
chain: B4 chain with A1G, Y64H, Y77F, K329T
B8: GlyPro-mTGase_Y75F from S. ladakanum (protein)
chain: B4 chain with A1G, Y77F
B9: GlyPro-mTGase_Y75N from S. ladakanum (protein)
chain: B4 chain with A1G, Y77N
B10: Met-mTGase from S. ladakanum (protein)
chain: MDSDERVTPPAEPLDRMPDPYRPSYGRAETIVNNYIRKWQQVYSHRDGRKQQMTEEQREWLSYGCVGVTWVNSGQYPTNRLAFAFFDEDKYKNELKNGRPRSGETRAEFEGRVAKDSFDEAKGFQRARDVASVMNKALENAHDEGAYLDNLKKELANGNDALRNEDARSPFYSALRNTPSFKDRNGGNHDPSKMKAVIYSKHFWSGQDRSGSSDKRKYGDPEAFRPDRGTGLVDMSRDRNIPRSPTSPGESFVNFDYGWFGAQTEADADKTVWTHGNHYHAPNGSLGAMHVYESKFRNWSDGYSDFDRGAYVVTFVPKSWNTAPDKVKQGWP
B11: AlaPro-mTGase from S. mobaraensis (protein)
chain: APDSDDRVTPPAEPLDRMPDPYRPSYGRAETVVNNYIRKWQQVYSHRDGRKQQMTEEQREWLSYGCVGVTWVNSGQYPTNRLAFASFDEDRFKNELKNGRPRSGETRAEFEGRVAKESFDEEKGFQRAREVASVMNRALENAHDESAYLDNLKKELANGNDALRNEDARSPFYSALRNTPSFKERNGGNHDPSRMKAVIYSKHFWSGQDRSSSADKRKYGDPDAFRPAPGTGLVDMSRDRNIPRSPTSPGEGFVNFDYGWFGAQTEADADKTVWTHGNHYHAPNGSLGAMHVYESKFRNWSEGYSDFDRGAYVITFIPKSWNTAPDKVKQGWP
B12: GlyPro-mTGase from S. mobaraensis (protein)
chain: B11 chain with A1G

Legend:
[1] = target: wild type human growth hormone, P01241
Sequence of wild type human growth hormone, P01241 (P01241 27-217): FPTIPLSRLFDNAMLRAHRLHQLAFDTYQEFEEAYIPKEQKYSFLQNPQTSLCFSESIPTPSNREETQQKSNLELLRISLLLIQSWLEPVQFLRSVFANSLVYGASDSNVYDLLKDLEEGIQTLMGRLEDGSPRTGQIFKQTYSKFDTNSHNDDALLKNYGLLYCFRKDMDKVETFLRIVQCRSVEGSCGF

Sequence of hGHQ40N, P01241 (P01241 27-217 Q66N): as the sequence (P01241 27-217) above, with Q40N counted along it
Sequence of hGHQ141N, P01241 (P01241 27-217 Q167N): as the sequence (P01241 27-217) above, with Q141N counted along it

Protein	Activity towards hGHQ40N (RFU/sec/µg) (hGHQ40N, P01241)	Activity towards hGHQ141N (RFU/sec/µg) (hGHQ141N, P01241)	hGH conv. rate (%) [1] [%]	also measured
B1	3.55	0.63		HPLC peak area of product-Q141 (hGHQ40N, P01241): area 1238; Q40N (remaining substrate, normalized to 100) (normalized to 100) (hGHQ40N, P01241): 23; product-Q141 (normalized to 100) (normalized to 100) (hGHQ40N, P01241): 77; HPLC peak area of product-Q40 (hGHQ141N, P01241): area 127; Q141N (remaining substrate, normalized to 100) (normalized to 100) (hGHQ141N, P01241): 90; product-Q40 (normalized to 100) (normalized to 100) (hGHQ141N, P01241): 10
B2	5.44	1.24		
B3	3.35	0.98		HPLC peak area of product-Q141 (hGHQ40N, P01241): area 1283; Q40N (remaining substrate, normalized to 100) (normalized to 100) (hGHQ40N, P01241): 29; product-Q141 (normalized to 100) (normalized to 100) (hGHQ40N, P01241): 71; HPLC peak area of product-Q40 (hGHQ141N, P01241): area 296; Q141N (remaining substrate, normalized to 100) (normalized to 100) (hGHQ141N, P01241): 81; product-Q40 (normalized to 100) (normalized to 100) (hGHQ141N, P01241): 19
B4	6.91	1.02		
B5			38	
B6	4.25	0.48	55	
B7			49.4	RS (relative selectivity), separate experiment [1]: 7.6; Selectivity (Q141/Q40), CE, separate experiment [1]: 76.5; hGH conv. rate (%), separate experiment [1]: 38.1%
B8			41	hGH conversion rate, CE, reaction time 75 m [1]: hGH conversion rate=33%
B9			44	hGH conversion rate, CE, reaction time 90 m [1]: hGH conversion rate=50%
B10	4.74	0.8		
B11	5.05	1.56	33	conversion rate, CE, reaction time 30 minutes [1]: conversion rate=32%; hGH conv. rate (%), reference of the separate experiment [1]: 39%
B12	4.28	1.13		
